Measurements published in US20260266828A1, “BIOMARKERS FOR PREDICTING CANCER TREATMENT EFFICACY” (Arcus Biosciences, Inc., priority 2023, published 2026).

Test system: metastatic (Stage IV) squamous or non-squamous NSCLC
Experiment: PFS in serum cytokine selected subsets of the trial of Example 2
Format: in vivo, human
Conditions: median
Protocol: Soluble biomarkers were retrospectively analyzed in baseline and on-treatment peripheral blood derived samples obtained from a subset of subjects enrolled in the clinical trial of Example 2. Baseline samples were obtained on day 1 of cycle 1 (CID1), prior to administration of any study drugs. On-treatment samples were obtained on day 1 of cycle 2 (C2D1), prior to administration of study drugs on that day.
Blood collected in serum separator tubes was allowed to clot for 30-60 minutes before centrifugation at 1300 g for 10 minutes to separate the serum. Serum was isolated and stored at −80° C. until cytokine analysis. Serum cytokines were quantified in multiplex assays using the Meso Scale Discovery platform following the manufacturer's protocol. Briefly, plates were coated with biotinylated capture antibodies specific to the analyte of interest bound to linkers specific to unique spots in each well of a 96-well plate. Serum samples, assessed in duplicate, were diluted 8-fold to quantify CXCL9, CXCL10, CXCL11 and IL-18 in a U-plex assay, diluted 10-fold to quantify IL-12B in a U-plex assay, and diluted 5-fold to quantify IFNγ, TNFα and IL-6 in the S-plex assay. Samples were incubated on linker/capture antibody-coated plates, followed by detection with a sulfo-tag-labelled antibody for the U-plex assays and a TURBO-tag-labelled antibody for the S-plex assay. For the S-plex assay, additional steps incorporated in the manufacturer's protocol to amplify signal with enhance solution and detection solution were followed. Following addition of read buffer, the electrochemiluminescent signal was measured on a MESO Sector S 600 instrument. Between each step of the protocol plates were washed with 0.05% Tween-PBS. A standard curve was generated for each plate using a 4-parameter logistic fit with 1/y^2 weighting. Cytokine concentrations in samples were interpolated using the standard curve, allowing quantification of the analyte of interest. Fold change from baseline was calculated as a ratio of the cytokine concentration at C2D1 over the cytokine concentration at baseline. A linear mixed model performed on log transformed raw cytokine values with baseline values as covariates assessed the difference in cytokine levels over time and between treatment groups.
Kaplan-Meier survival plots using progression-free survival data and cytokine concentrations were generated in the Jmp software, and hazard ratios were calculated between patient groups of interest. Comparisons were made for each analyte between zimberelimab monotherapy and domvanalimab combination groups both at baseline and using the fold change at C2D1 using median values to stratify patients in to low and high cytokine groups. Stratifying subjects by baseline cytokine expression (e.g., CXCL9, CXCL10, CXCL11, LL-6, TNFα) around the median value (high vs. low) enriched for clinical benefit with the addition of domvanalimab. Baseline reference values derived from the biomarker evaluable population (BEP) are as follows (high is ≥reference value, and low is <reference value): CXCL9: 278.7 pg/mL; CXCL10: 445.4 pg/mL; CXCL11:104.2 pg/mL; L-6: 15550 fg/mL; TNFα: 1194 fg/mL. Induction reference values derived from the BEP are as follows (high is ≥reference value, and low is <reference value): CXCL9: 1.76 fold change; CXCL10: 1.52 fold change; […]: 1.14 fold change IL-18: 1.1 fold change; IFNγ: 1.23 fold change.

B1: zimberelimab (antibody, chains of the INN, looked up, V domains shown)
VH: QLQLQESGPGLVKPSETLTLTCTVSADSISSTTYYWVWIRQPPGKGLEWIGSISYSGSTYYNPSLKSRVTVSVDTSKNQFSLKLNSVAATDTALYYCARHLGYNGRYLPFDYWGQGTLVTVSS
VL: QSALTQPASVSGSPGQSITISCTGTSSDVGFYNYVSWYQQHPGKAPELMIYDVSNRPSGVSDRFSGSKSGNTASLTISGLQAEDEADYYCSSYTSISTWVFGGGTKLTVL
notes: zimberelimab monotherapy 360 mg IV Q3W; anti-PD-1 antibody
PFS (BEP (fold change from baseline to C2D1)): 5.7 mo | PFS (BEP for cytokine analysis (baseline samples)): 5.6 mo | PFS (CXCL9 High Induction at C2D1 (≥1.76 fold change)): 2.7 mo | PFS (CXCL9 High at Baseline (≥278.7 pg/mL)): 4 mo | PFS (CXCL9 Low Induction at C2D1 (<1.76 fold change)): 9.7 mo | PFS (CXCL9 Low at Baseline (<278.7 pg/mL)): 7.6 mo | PFS (CXCL10 High Induction at C2D1 (≥1.52 fold change)): 2.7 mo | PFS (CXCL10 High at Baseline (≥445.4 pg/mL)): 5.4 mo | PFS (CXCL10 Low Induction at C2D1 (<1.52 fold change)): 11.7 mo | PFS (CXCL10 Low at Baseline (<445.4 pg/mL)): 7.6 mo | PFS (CXCL11 High at Baseline (≥104.2 pg/mL)): 4.9 mo | PFS (CXCL11 Low at Baseline (<104.2 pg/mL)): 5.6 mo | PFS (IFNγ High Induction at C2D1 (≥1.23 fold change)): 4.5 mo | PFS (IFNγ Low Induction at C2D1 (<1.23 fold change)): 11.7 mo | PFS (IL-6 High at Baseline (≥15550 fg/mL)): 1.8 mo | PFS (IL-6 Low at Baseline (<15550 fg/mL)): 9.6 mo | PFS (IL-12B High Induction at C2D1 (≥1.14 fold change)): 9.6 mo | PFS (IL-12B Low Induction at C2D1 (<1.14 fold change)): 2.5 mo | PFS (IL-18 High Induction at C2D1 (≥1.1 fold change)): 5.7 mo | PFS (IL-18 Low Induction at C2D1 (<1.1 fold change)): 4.5 mo | PFS (TNFα High at Baseline (≥1194 fg/mL)): 3.5 mo | PFS (TNFα Low at Baseline (<1194 fg/mL)): 5.7 mo
